This note sets out measurements from patent publication EP4388012A1 (dated 2024).

Read-outs that look alike come from different tables or passages of the source.

The target of experiment [1] is T1, soluble HLA-E-VL9 complex (HLA-E*01:03 heavy chain refolded with b2M and synthetic VL9 peptide) (human).
In experiment [2] the target is T1, soluble HLA-E-VL9 complex (HLA-E*01:03 …). Briefly: SPR, antibody immobilized on CM5 chip, soluble HLA-E-VL9 flowed, 1:1 model. In general terms: In SPR one partner is held on a chip, and binding of the other changes the refractive index at the surface.

B1: 3H4, murine HLA-E-VL9-specific IgM monoclonal antibody (antibody, V domains shown)
VH: EVQLQESGPELVKPGASVKIPCKASGYTFTDYNMDWVKQSHGKSLEWIGDINPNNGGTIYNQKFKGKATLTVDKSSSTAYMELRSLTSEDTAVYYCARPDYYGSSYGWYFDVWGTGTTVTVSS
VL: DIVITQSPSSMYASLGERVTITCKASQDINSYLSWFQQKPGKSPKTLIYRANRLVDGVPSRFSGSGSGQDYSLTISSLEYEDMGIYYCLQYDEFPLTFGAGTKLELK
notes: also called mAb 3H4; 3H4 IgM
As a reminder, the Kd is the constant that tells how readily two partners part at equilibrium. Higher therefore signals weaker binding. As to B1, the Kd in experiment [1] was found to be 8.1 µM.

B2: 3H4 as a recombinant human IgG1 (unoptimized, wild-type 3H4 on a human IgG1 backbone, 3H4 Gwt) (antibody, V domains shown)
VH: B1 VH
VL: B1 VL
notes: also called 3H4 IgG; wild-type 3H4 IgG
In experiment [2], B2 yielded a Kd of 49.8 µM.
